The record followed here is publication PMC8879737.

Several values for one entry are separate records, joined by “and”; a condition that tells them apart may be missing. Identical values can stand only once. Like-named read-outs stand apart in the source and are kept apart here.

In assay [1] the target is guinea pig whole molecule IgG (guinea pig). The assay is described as follows: SPR; Biacore 2000; human IgG Fc and human, rabbit, mouse, guinea pig whole IgG amine coupled to CM5 chips (854, 1348, 1094, 857, 1143 RU); gE monomers and gE/gI heterodimers at 750 μg/mL (Bac gE-1 t411 490 μg/mL) flowed at 30 μL/min in 0.01 M HEPES pH 7.4, 0.15 M NaCl, 0.005% P20; one concentration, RU at the end of association and of dissociation.

For assay [2], the target named is human whole molecule IgG (human). The assay is described as above.
In assay [3] the target is rabbit whole molecule IgG (rabbit). Described as above.
Assay [4] concerns the target ChromePure human IgG Fc (human). The assay is described as above.
In assay [5] the target is human whole molecule IgG (human). The description is as above. The source holds these as a separate data set.
Assay [6] concerns the target rabbit whole molecule IgG (rabbit). The assay is described as above. The source holds these as a separate data set.
The target of assay [7] is ChromePure human IgG Fc (human). The assay is described as above. This is another data set of the same source.
For assay [8], the target named is gE-2 t417 (HSV-2 strain 333). The assay is described as follows: SEC-MALS; Superdex 200, 10 mM HEPES, 150 mM NaCl, pH 7.5, 20 °C, 0.5 mL/min; 200 µg injected; conjugate analysis (protein and carbohydrate). On the technique in general: In gel filtration, larger molecules generally elute earlier.

In the case of Bac gE-1 t411 (domain or fragment), the RU post association in assay [1] is 32 RU; in assay [2] it was 147 RU; in assay [3], 231 RU; in assay [4] it was 77 RU; in assay [5], 157 RU and 145 RU; in assay [6], 228 RU and 221 RU. In addition, the RU post association in assay [7] is 80 RU. Further, the values for the RU post dissociation in assay [1], in assay [2] and in assay [3] were 3.3 RU, 32 RU and 75 RU, respectively.
On to gE-2 t414/gI-2 t262 (complex), for which the RU post association in assay [2] is 79 RU; in assay [3], 75 RU; in assay [4], 53 RU. Further, the RU post dissociation in assay [2] was -0.4 RU; in assay [3], -0.6 RU; in assay [4], 0.6 RU.
As to gE-2 t417/gI-2 t262 (complex), the RU post association in assay [2] is 52 RU; in assay [3] it was 46 RU; in assay [5] it was 53 RU and 133 RU. Moreover, the results for the RU post dissociation in assay [2] and in assay [3] were -2.1 RU and -1.5 RU, respectively.
A word on the stoichiometry N: it is the number of molecules, sites or subunits per partner or assembly. For the substance “gI-2 t262 (strain 333) (domain or fragment)”, the stoichiometry N in assay [8] came out at 1.
In the case of gE-1 t419 (domain or fragment), the RU post association in assay [1] amounted to 27 RU; in assay [2], 127 RU; in assay [3], 188 RU. Also, the RU post dissociation in assay [1] was -2.4 RU; in assay [2] it was -1.9 RU; in assay [3], 0.6 RU.
Consider gE-1 t419/gI-1 t269 (complex), for which the RU post association was found to be 19 RU in assay [1], 232 RU in assay [2], 195 RU in assay [3] and 216 RU in assay [4]. Besides, the RU post dissociation in assay [1] came out at 0.8 RU; in assay [2], 189 RU; in assay [3], 170 RU; in assay [4], 137 RU.
Regarding gE-2 t24-405/gI-2 t262 (complex), the RU post association in assay [2] was found to be 136 RU; in assay [3] it was 142 RU; in assay [4], 95 RU. The values for the RU post dissociation in assay [2], in assay [3] and in assay [4] were 12 RU, 25 RU and 6.6 RU, respectively.
For the substance gE-2 t405/gI-2 t262 (complex), the RU post association in assay [2] was determined as 142 RU; in assay [3] it was 165 RU; in assay [4] it was 100 RU. For the same substance, the RU post dissociation in assay [2] came to 14 RU; in assay [3], 34 RU; in assay [4], 7.7 RU.
